According to patent US20210054097A1 (Novo Nordisk, published 2021):
Ends that are not written are not given here.

T1: FX activation peptide 12-mer VAQATSSSGEAP (human)
T1 peptide: VAQATSSSGEAP-biotin

T2: FX activation peptide 12-mer YDAADLDPTENP (human)
T2 peptide: YDAADLDPTENP-biotin

T3: FX activation peptide 12-mer SSGEAPDSITWK (human)
T3 peptide: SSGEAPDSITWK-biotin

T4: FX activation peptide 12-mer LDFNQTQPERGD (human)
T4 peptide: LDFNQTQPERGD-biotin

T5: FX activation peptide 12-mer QATSSSGEAPDS (human)
T5 peptide: QATSSSGEAPDS-biotin

T6: FX activation peptide 12-mer LLDFNQTQPERG (human)
T6 peptide: LLDFNQTQPERG-biotin

T7: FX activation peptide 12-mer PYDAADLDPTEN (human)
T7 peptide: PYDAADLDPTEN-biotin

T8: FX activation peptide 12-mer DSITWKPYDAAD (human)
T8 peptide: DSITWKPYDAAD-biotin

T9: FX activation peptide 12-mer GEAPDSITWKPY (human)
T9 peptide: GEAPDSITWKPY-biotin

T10: FX activation peptide 12-mer AQATSSSGEAPD (human)
T10 peptide: AQATSSSGEAPD-biotin

T11: FX activation peptide 12-mer WKPYDAADLDPT (human)
T11 peptide: WKPYDAADLDPT-biotin

T12: FX activation peptide 12-mer APDSITWKPYDA (human)
T12 peptide: APDSITWKPYDA-biotin

T13: FX activation peptide 12-mer DLLDFNQTQPER (human)
T13 peptide: DLLDFNQTQPER-biotin

T14: FX activation peptide 12-mer DAADLDPTENPF (human)
T14 peptide: DAADLDPTENPF-biotin

T15: FX activation peptide 12-mer SITWKPYDAADL (human)
T15 peptide: SITWKPYDAADL-biotin

T16: FX activation peptide 12-mer SGEAPDSITWKP (human)
T16 peptide: SGEAPDSITWKP-biotin

T17: FX activation peptide 12-mer ADLDPTENPFDL (human)
T17 peptide: ADLDPTENPFDL-biotin

T18: FX activation peptide 12-mer ENPFDLLDFNQT (human)
T18 peptide: ENPFDLLDFNQT-biotin

T19: FX activation peptide 12-mer SVAQATSSSGEA (human)
T19 peptide: SVAQATSSSGEA-biotin

T20: FX activation peptide 12-mer LDPTENPFDLLD (human)
T20 peptide: LDPTENPFDLLD-biotin

T21: FX activation peptide 12-mer FNQTQPERGDNN (human)
T21 peptide: FNQTQPERGDNN-biotin

T22: FX activation peptide 12-mer ITWKPYDAADLD (human)
T22 peptide: ITWKPYDAADLD-biotin

T23: FX activation peptide 12-mer DLDPTENPFDLL (human)
T23 peptide: DLDPTENPFDLL-biotin

T24: FX activation peptide 12-mer TENPFDLLDFNQ (human)
T24 peptide: TENPFDLLDFNQ-biotin

T25: FX activation peptide 12-mer FDLLDFNQTQPE (human)
T25 peptide: FDLLDFNQTQPE-biotin

T26: FX activation peptide 12-mer AADLDPTENPFD (human)
T26 peptide: AADLDPTENPFD-biotin

T27: FX activation peptide 12-mer DFNQTQPERGDN (human)
T27 peptide: DFNQTQPERGDN-biotin

T28: FX activation peptide 12-mer NQTQPERGDNNL (human)
T28 peptide: NQTQPERGDNNL-biotin

T29: FX activation peptide 12-mer EAPDSITWKPYD (human)
T29 peptide: EAPDSITWKPYD-biotin

T30: FX activation peptide 12-mer TQPERGDNNLTR (human)
T30 peptide: TQPERGDNNLTR-biotin

T31: FX activation peptide 12-mer NPFDLLDFNQTQ (human)
T31 peptide: NPFDLLDFNQTQ-biotin

T32: FX activation peptide 12-mer ATSSSGEAPDSI (human)
T32 peptide: ATSSSGEAPDSI-biotin

T33: FX activation peptide 12-mer QTQPERGDNNLT (human)
T33 peptide: QTQPERGDNNLT-biotin


Legend:
Experiment in all cases: peptide ELISA
[1] = target: T1, FX activation peptide 12-mer …
Description: (§1) The peptides were C-terminally conjugated to biotin and 50 μL of 1 μg/mL peptide solution was used for immobilization in discrete wells of the microtiter plate which was pre-coated with 1 μg/mL streptavidin. Each well was washed with washing buffer (10 mM Tris, 150 mM NaCl, 2.5 mM CaCl₂, 0.05% Tween 20, pH 8.60) followed by addition of 50 μL of 2 μg/mL FLAG-tagged anti-FX Nanobody® or IgG antibody to be tested. After 1 hour non-bound Nanobody®/antibody was washed off using washing buffer.
(§2) Bound anti-FX activation peptide ligand was detected by first binding a HRP-labelled secondary antibody (for FLAG-tagged Nanobodies: Anti-FLAG mAb M2-Peroxidase (HRP) (Sigma Aldrich, US), for antibody: Fcγ Fragment Specific Peroxidase AffiniPure F(ab′)₂ Fragment Goat Anti-Human IgG (Jackson ImmunoResearch Laboratories, Inc., US), or Peroxidase AffiniPure Goat Anti-Mouse IgG (Jackson ImmunoResearch Laboratories, Inc., US)) for 1 hour, and then adding 100 μL TMB-1 ELISA substrate (Kem-En-Tec Diagnostics, Denmark).

[2] = target: T2, FX activation peptide 12-mer …
Description: as §1, §2

[3] = target: T3, FX activation peptide 12-mer …
Description: as §1, §2

[4] = target: T4, FX activation peptide 12-mer …
Description: as §1, §2

[5] = target: T5, FX activation peptide 12-mer …
Description: as §1, §2

[6] = target: T6, FX activation peptide 12-mer …
Description: as §1, §2

[7] = target: T7, FX activation peptide 12-mer …
Description: as §1, §2

[8] = target: T8, FX activation peptide 12-mer …
Description: as §1, §2

[9] = target: T9, FX activation peptide 12-mer …
Description: as §1, §2

[10] = target: T10, FX activation peptide 12-mer …
Description: as §1, §2

[11] = target: T11, FX activation peptide 12-mer …
Description: as §1, §2

[12] = target: T12, FX activation peptide 12-mer …
Description: as §1, §2

[13] = target: T13, FX activation peptide 12-mer …
Description: as §1, §2

[14] = target: T14, FX activation peptide 12-mer …
Description: as §1, §2

[15] = target: T15, FX activation peptide 12-mer …
Description: as §1, §2

[16] = target: T16, FX activation peptide 12-mer …
Description: as §1, §2

[17] = target: T17, FX activation peptide 12-mer …
Description: as §1, §2

[18] = target: T18, FX activation peptide 12-mer …
Description: as §1, §2

[19] = target: T19, FX activation peptide 12-mer …
Description: as §1, §2

[20] = target: T20, FX activation peptide 12-mer …
Description: as §1, §2

[21] = target: T21, FX activation peptide 12-mer …
Description: as §1, §2

[22] = target: T22, FX activation peptide 12-mer …
Description: as §1, §2

[23] = target: T23, FX activation peptide 12-mer …
Description: as §1, §2

[24] = target: T24, FX activation peptide 12-mer …
Description: as §1, §2

[25] = target: T25, FX activation peptide 12-mer …
Description: as §1, §2

[26] = target: T26, FX activation peptide 12-mer …
Description: as §1, §2

[27] = target: T27, FX activation peptide 12-mer …
Description: as §1, §2

[28] = target: T28, FX activation peptide 12-mer …
Description: as §1, §2

[29] = target: T29, FX activation peptide 12-mer …
Description: as §1, §2

[30] = target: T30, FX activation peptide 12-mer …
Description: as §1, §2

[31] = target: T31, FX activation peptide 12-mer …
Description: as §1, §2

[32] = target: T32, FX activation peptide 12-mer …
Description: as §1, §2

[33] = target: T33, FX activation peptide 12-mer …
Description: as §1, §2

| ELISA signal relative to background [1] | ELISA signal relative to background [2] | ELISA signal relative to background [3] | ELISA signal relative to background [4] | ELISA signal relative to background [5] | ELISA signal relative to background [7] | ELISA signal relative to background [8] | ELISA signal relative to background [9] | ELISA signal relative to background [10] | ELISA signal relative to background [11] | ELISA signal relative to background [12] | ELISA signal relative to background [13] | ELISA signal relative to background [14] | ELISA signal relative to background [15] | ELISA signal relative to background [16] | ELISA signal relative to background [17] | ELISA signal relative to background [18] | ELISA signal relative to background [19] | ELISA signal relative to background [20] | ELISA signal relative to background [21] | Binder | other results |
| --- | --- | --- | --- | --- | --- | --- | --- | --- | --- | --- | --- | --- | --- | --- | --- | --- | --- | --- | --- | --- | --- |
| 1.24 | 1.28 | 1.22 | 1.14 | 1.14 | 1.2 | 1.22 | 1.24 | 1.19 | 1.14 | 1.16 | 1.18 | 1.24 | 1.18 | 1.18 | 1.25 | 6.57 | 1.21 | 1.3 | 1.16 | Nb 730C03 (VHH, monovalent Nanobody; also called Nb 730003; not shown: C-terminal FLAG3 and HIS6 tag) VHH: EVQLVESGGGVVQPGGSLRLSCVASGFTFSDYAMSWVRQAPGKGLEWVSGITSGSGRTYYADSVKGRFTISRDNSKNTVYLQMNSLRPEDTALYYCAAAILRGYRKTYDYWGQGTLVTVSS | ELISA signal relative to background [6]: 1.1; ELISA signal relative to background [22]: 1.2; ELISA signal relative to background [23]: 1.26; ELISA signal relative to background [24]: 2.1; ELISA signal relative to background [25]: 1.28; ELISA signal relative to background [26]: 1.21; ELISA signal relative to background [27]: 1.16; ELISA signal relative to background [28]: 1.22; ELISA signal relative to background [29]: 1.24; ELISA signal relative to background [30]: 1.06; ELISA signal relative to background [31]: 2.82; ELISA signal relative to background [32]: 1.19; ELISA signal relative to background [33]: 1.1 |
| 0.73 | 0.81 | 0.89 | 0.82 | 0.77 | 0.88 | 0.76 | 0.86 | 0.75 | 1.14 | 0.82 | 1.17 | 0.81 | 0.84 | 0.84 | 0.73 | 3.43 | 0.76 | 0.84 | 0.89 | Nb 701B09 (VHH, monovalent Nanobody; also called Nb 701609; not shown: C-terminal FLAG3 and HIS6 tag) VHH: EVQLVESGGGVVQPGGSLRLSCAASGRTFSTYAMGWFRQAPGKEREFVAAISWSGSRTYYADSVKGRFTISRDNSKNTVYLQMNSLRPEDTALYYCAADATPANGELDYWGQGTLVTVSS | ELISA signal relative to background [6]: 1.09; ELISA signal relative to background [22]: 0.83; ELISA signal relative to background [23]: 0.82; ELISA signal relative to background [24]: 4.38; ELISA signal relative to background [25]: 3.27; ELISA signal relative to background [26]: 0.79; ELISA signal relative to background [27]: 0.87; ELISA signal relative to background [28]: 0.79; ELISA signal relative to background [29]: 0.79; ELISA signal relative to background [30]: 0.93; ELISA signal relative to background [31]: 2.16; ELISA signal relative to background [32]: 0.82; ELISA signal relative to background [33]: 0.72 |
| 1.02 | 0.87 | 0.88 | 0.97 | 0.96 | 0.83 | 1.08 | 0.93 | 0.97 | 0.89 | 1.06 | 3.08 | 0.88 | 1.08 | 0.88 | 0.91 | 4 | 0.96 | 1.11 | 1 | Nb 702C12 (VHH, monovalent Nanobody; not shown: C-terminal FLAG3 and HIS6 tag) VHH: EVQLVESGGGVVQPGGSLRLSCVASGRTFSRYAMGWFRQAPGKEREFVAAISRRGGSTNYADSVKGRFTISRDNSKNTVYLQMNSLRPEDTALYYCAADYSSGDGYLDYWGQGTLVTVSS | ELISA signal relative to background [22]: 1.1; ELISA signal relative to background [23]: 1; ELISA signal relative to background [24]: 4.84; ELISA signal relative to background [25]: 4.38; ELISA signal relative to background [26]: 0.88; ELISA signal relative to background [27]: 0.94; ELISA signal relative to background [28]: 0.92; ELISA signal relative to background [29]: 0.97; ELISA signal relative to background [30]: 1.05; ELISA signal relative to background [31]: 3.13; ELISA signal relative to background [32]: 0.98; ELISA signal relative to background [33]: 0.88 |
